We go through two molecules from EP4803550A1 (Yantai Patronus Biotech Co., Ltd., dated 2026).

This test concerns the target T1, NPM-4C (binding peptide 2-NPM fusion protein).
T1 construct: Self-assembling nanoparticle protein expressed in E. coli; also called particle protein component; VLP carrier NPM-4C
The test is described as follows: covalent binding reaction (4T/4C) with NPM-4C at 22 °C for 24 h, SEC purification, SDS-PAGE.

B1: RD012-1 (fHBP V3 domain 1-fHBP V1 domain 2-(G)-fHBP V1 domain 1-fHBP V2 domain 2-(GSG)2-4T-His) (other)
chain: SSGSGSGGGGVAADIGTGLADALTAPLDHKDKGLKSLTLEDSISQNGTLTLSAQGAEKTFKVGDKDNSLNTGKLKNDKISRFDFVQKIEVDGQTITLASGEFQIYKQDHSAVVALQIEKINNPDKIDSLINQRSFLVSGLGGEHTSFDKLPKDVMATYRGTAFGSDDAGGKLTYTIDFAAKQGHGKIEHLKSPELNVDLAVAYIKPDEKHHAVISGSVLYNQDEKGSYSLGIFGEKAQEVAGSAEVETANGIHHIGLAAKQGSSGGGGSGGGGVTADIGTGLADALTAPLDHKDKGLKSLTLEDSISQNGTLTLSAQGAEKTYGNGDSLNTGKLKNDKVSRFDFIRQIEVDGQLITLESGEFQVYKQSHSALTALQTEQEQDPEHSEKMVAKRRFRIGDIAGEHTAFNQLPDGKAEYHGKAFSSDDAGGKLTYTIDFAAKQGHGKIEHLKTPEQNVELAAAELKADEKSHAVILGDTRYGSEEKGTYHLALFGDRAQEIAGSATVKIGEKVHEIGIAGKQGSGGSGAHIVMVDAYKPTKHHHHHH
notes: Expressed in E. coli BL21(DE3), purified by His-trap and SEC; also called RD012-1 fusion protein; MenB antigen
As for B1, the binding result is given as “binds”.

B2: RD012-2 (fHBP V3 domain 1-fHBP V1 domain 2-fHBP V1 domain 1T1-fHBP V2 domain 2-(GSG)2-4T-His) (other)
chain: SSGSGSGGGGVAADIGTGLADALTAPLDHKDKGLKSLTLEDSISQNGTLTLSAQGAEKTFKVGDKDNSLNTGKLKNDKISRFDFVQKIEVDGQTITLASGEFQIYKQDHSAVVALQIEKINNPDKIDSLINQRSFLVSGLGGEHTSFDKLPKDVMATYRGTAFGSDDAGGKLTYTIDFAAKQGHGKIEHLKSPELNVDLAVAYIKPDEKHHAVISGSVLYNQDEKGSYSLGIFGEKAQEVAGSAEVETANGIHHIGLAAKQGSGGGGVTADIGTGLADALTAPLDHKDKGLKSLTLEDSISQNGTLTLSAQGAEKTYGNGDSLNTGKLKNDKVSRFDFIRQIEVDGQLITLESGEFQVYKQSHSALTALQTEQEQDPEHSEKMVAKRRFRIGDIAGEHTAFNQLPDGKAEYHGKAFSSDDAGGKLTYTIDFAAKQGHGKIEHLKTPEQNVELAAAELKADEKSHAVILGDTRYGSEEKGTYHLALFGDRAQEIAGSATVKIGEKVHEIGIAGKQGSGGSGAHIVMVDAYKPTKHHHHHH
notes: Expressed in E. coli BL21(DE3), purified by His-trap and SEC; also called RD012-2 fusion protein; MenB antigen
On to B2, for which the binding result is reported as “binds”.
